Consider ten molecules from patent publication US20250206836A1 (ONA THERAPEUTICS S L, published 2025).

Where a chain is given by its changes, count along the chain named. Names may count otherwise.

B1: 19G04 (antibody, human IgG1, V domains shown)
VH: EVQLQQSGPELVKPGASVKISCETSGHTFTEYTMHWVKQSHGKSLEWIGGIYPNNGATKYNQKFKGKATLTVDKSSSTAYMELRSLTSEDSAVYYCARDRYDVWFAYWGQGTLVTVSA
VL: ETTVTQSPASLSMAIGEKVTIRCITSTDIDDDMNWYQQKPGEPPKLLISEGNTLRPGVPSRFSSSGYGTDFIFTIENMLSEDVADYYCLQSDNLPLTFGAGTKLELK
notes: Chimeric: mouse variable regions on human IgG1 LALA (L234A/L235A); also called 019G04
B2: 16G04 (antibody, human IgG1, V domains shown)
VH: EVQLQQSGPELVKPGASVKISCKTSGYTFTEYTMHWVKQSHGKSLEWIGGINPYNGGTAYNQKFKNKATLTVDISSNTAFMEFRSLTSEDSAVYYCASDYFYGDANPWFAYWGQGTLVTVSA
VL: B1 VL with I72V
notes: Chimeric: mouse variable regions on human IgG1 LALA (L234A/L235A); also called 016G04
B3: 30G04 (antibody, human IgG1, V domains shown)
VH: EVQLVESGGGVVQPGESLKLSCESNEYEFPSHDMSWVRKTPERRLELVAAINSDGAITYYPDTMERRFIISRDNTKKTLYLQMSSLKSEDTAMYYCARHGQTGTWFAYWGQGTLVTVSA
VL: B1 VL with I72V
notes: Chimeric: mouse variable regions on human IgG1 LALA (L234A/L235A); also called 030G04
B4: 4G04 (antibody, human IgG1, V domains shown)
VH: QVQLQQPGSELRSPGSSVKLSCKDFDSEVFPIAYMTWVRQKPGHGFEWIGDILPSIGGTIYGEKFEDKATLDADTVSNTAYLELNSLTSEDSAIYYCARDYYGSSYGYFDVWGAGTAVTVSS
VL: DIVLTQSQKFMSTSVGDRVSVTCKASQNVGTNVAWYQQKPGQSPKALIYSASYRYSGVPDRFTGSGSGTDFTLTISNVQSEDLAEYFCQQYNSYPYTFGGGTKLEIK
notes: Chimeric: mouse variable regions on human IgG1 LALA (L234A/L235A); also called 04G04; 004G04
B5: 27G04 (antibody, human IgG1, V domains shown)
VH: EVQLQQSGAELLKPGASVKISCKTTGYTFSNYWIEWVKQRPGHGLEWIGEILPGSGSPKYNEKFKGKATLTADTSSNTAFMQLSSLTSEDSAVYYCAPFILENYFDYWGQGTTLTVSS
VL: DIQMTQSHKFMSTSVGDRVSITCKASQDVSTAVAWYQQKPGQSPKLLIYSASYRYTGVPDRFTGSGSGTDFTFTISSVQAEDLAVYYCQQHYSTPRTFGGGTKLEIK
notes: Chimeric: mouse variable regions on human IgG1 LALA (L234A/L235A)
B6: 36G04 (antibody, human IgG1, V domains shown)
VH: AVTLDESGGGLQTPGGALSLVCKASGFIFSSYGMGWVRQAPGKGLEYIAAISNDGSKADYGAAVKGRATISRDNGQSTVRLQLNNLRAEDTATYYCAKSADTGYCSWSACIADSIDAWGHGTEVIVSS
VL: ALTQPSSVSAIPGETVKITCSGGGSDYGWYQQKSPGSAPVTVIYWSDNRPSNIPSRFSGSESGSTATLTITGVRAEDEAVYFCGGYDSSGSGMFGAGTTLTVL
notes: Chimeric: chicken variable regions on human IgG1 LALA (L234A/L235A); also called 036G04
B7: 34G04 (antibody, human IgG1, V domains shown)
VH: AVTLDESGGGLQTPGGALSLVCKASGFDFSSYAMGWVRQAPGKGLEWVAGKAKDGGGTAYGSAVKGRATISRDNGQSTVRLQLSNLRAEDTGVYYCAKSAYGDWFYGSSGPYADSIDAWGHGTEVIVSS
VL: ALTQPSSVSANPGETVKITCSGGDNYAGSYYYGWYQQKSPGSAPVTVIYDDTNRPADIPSRFSGSTSGSTNTLTITGVRAEDEAVYFCGGWDSINDRNIFGAGTTLTVL
notes: Chimeric: chicken variable regions on human IgG1 LALA (L234A/L235A); also called 034G04
B8: 35G04 (antibody, human IgG1, V domains shown)
VH: AVTLDESGGGLQTPGGALSLVCKASGFTFSNYGMGWMRQAPGKGLEFVAKIYKDGGYTGYGAAVDGRATISRDDGQSTVRLQLNDLRAEDTATYFCAKAADSGYLYITDSIDAWGHGTEVIVSS
VL: ALTQPSSVSANPGETVKITCSGGSGSYGWFQQKSPGNAPVTVIYHNDQRPSDIPSRFSGSKSGSTATLTITEVQADDEAVYVCGGYDNDNDAGIFGAGTTLTVL
notes: Chimeric: chicken variable regions on human IgG1 LALA (L234A/L235A); also called 035G04
B9: 37G04 (antibody, human IgG1, V domains shown)
VH: AVTLDESGGGLQTPGGALSLVCKASGFTFSDYDMLWVRQAPGKGLEFVAGINAASTYTDYGAAVKGRATISRDNGQSTVRLQVNNLRAEDTGTYYCAKSSYGGGWSDVGSIDAWGHGTEVIVSS
VL: ALTQPSSVSANPGETVKITCSGDRSYYGYGWYQQKAPGSAPVTVIYWDDKRPSDIPSRFSGSTSGSTATLTITGVQAEDEAVYFCGNMDSSYVGMFGAGTTLTVL
notes: Chimeric: chicken variable regions on human IgG1 LALA (L234A/L235A); also called 037G04
B10: 38G04 (antibody, human IgG1, V domains shown)
VH: AVTLDESGGGLQTPGRALSLVCKASGFTFSSYNMFWVRQAPGKGLEWVAGIDDDGSFTLYGAAVKGRATISRDNGQSTVRLQLNNLRAEDTGTYYCARDSGAVSIDAWGHGTEVIVSS
VL: ALTQPSSVSANPGETVKITCSGGDSDYGWYQQKSPGSAPVTVIYQNDKRPSDIPSRFSGSASGSTATFTITGVQAEDEAVYYCGGWDGSYDGAVFGAGTTLTVL
notes: Chimeric: chicken variable regions on human IgG1 LALA (L234A/L235A); also called 038G04

By EC50 is commonly meant the concentration at which the effect is half-maximal.

T4 sequence (P16671 other isoform, or with tags, fused parts or gaps limits assumed): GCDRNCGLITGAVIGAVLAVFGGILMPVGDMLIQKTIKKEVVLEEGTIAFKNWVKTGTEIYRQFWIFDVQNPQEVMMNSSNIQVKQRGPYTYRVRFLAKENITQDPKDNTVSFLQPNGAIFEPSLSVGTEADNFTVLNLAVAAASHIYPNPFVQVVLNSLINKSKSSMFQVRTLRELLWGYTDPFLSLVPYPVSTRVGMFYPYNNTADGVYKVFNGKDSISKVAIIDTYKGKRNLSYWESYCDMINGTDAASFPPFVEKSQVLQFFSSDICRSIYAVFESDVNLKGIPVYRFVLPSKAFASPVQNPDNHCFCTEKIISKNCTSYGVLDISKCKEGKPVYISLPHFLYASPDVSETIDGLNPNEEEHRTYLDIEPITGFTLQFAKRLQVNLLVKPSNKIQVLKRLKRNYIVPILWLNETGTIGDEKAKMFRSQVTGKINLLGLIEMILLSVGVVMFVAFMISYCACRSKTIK

The first assay deals with T1, human CD36 (on HEK 293 or SCC25 cells) (human, UniProt P16671 2-472). The experiment in a line: cell-based or functional assay.
T1 sequence (P16671 2-472 limits assumed): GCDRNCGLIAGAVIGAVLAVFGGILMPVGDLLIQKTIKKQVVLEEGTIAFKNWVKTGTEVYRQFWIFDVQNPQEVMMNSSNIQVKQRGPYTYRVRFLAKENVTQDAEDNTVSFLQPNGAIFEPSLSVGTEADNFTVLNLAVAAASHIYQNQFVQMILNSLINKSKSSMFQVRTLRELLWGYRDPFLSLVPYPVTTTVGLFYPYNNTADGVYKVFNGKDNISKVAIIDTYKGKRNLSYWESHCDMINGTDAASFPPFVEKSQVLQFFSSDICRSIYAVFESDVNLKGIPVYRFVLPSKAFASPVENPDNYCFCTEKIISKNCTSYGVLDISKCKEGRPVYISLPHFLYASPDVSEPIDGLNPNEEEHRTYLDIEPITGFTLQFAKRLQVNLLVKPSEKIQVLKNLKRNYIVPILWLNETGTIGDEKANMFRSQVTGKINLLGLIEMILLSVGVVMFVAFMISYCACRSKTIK
On to B1, for which the “Percent Fatty Acid Uptake Inhibition” value was determined as 53.3%.

On to B2, for which the “Percent Fatty Acid Uptake Inhibition” value amounted to 45.2%.

Consider B3, for which the “Percent Fatty Acid Uptake Inhibition” value worked out at 43.5%.

In a further assay the target is T2, purified biotin-tagged human CD36 (human, UniProt P16671 30-439, limits assumed, biotin tag, site not stated). Nature of the assay: AlphaScreen competition; competitor FA6-152 on acceptor beads. On the technique in general: Bead proximity is the source of the signal in Alpha formats.
T2 sequence (P16671 30-439 limits assumed): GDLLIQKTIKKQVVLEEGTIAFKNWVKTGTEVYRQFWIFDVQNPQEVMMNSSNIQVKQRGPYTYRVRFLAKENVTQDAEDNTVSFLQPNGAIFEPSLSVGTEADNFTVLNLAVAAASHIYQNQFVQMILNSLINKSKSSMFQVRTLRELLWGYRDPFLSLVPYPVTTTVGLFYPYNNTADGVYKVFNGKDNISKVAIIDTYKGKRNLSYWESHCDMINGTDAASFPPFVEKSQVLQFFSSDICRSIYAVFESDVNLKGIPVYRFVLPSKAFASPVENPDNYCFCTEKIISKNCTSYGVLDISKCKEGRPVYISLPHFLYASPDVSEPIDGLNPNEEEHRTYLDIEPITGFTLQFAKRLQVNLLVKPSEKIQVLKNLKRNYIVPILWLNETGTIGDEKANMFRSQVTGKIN
B4 displayed an EC50 of 9890 pM.

As to B5, the EC50 is 1800 pM.

The next assay has as its target T1, human CD36 (on HEK 293 or SCC25 cells). The experiment in a line: cell-based or functional assay. The source holds these as a separate data set.
As to B6, the “IC50 of fatty acid uptake inhibition (BODIPY FL C16, HEK hCD36 cells)” value (shortened to “IC50 of fatty acid uptake inhibition”) was determined as 810 pM.

Turning to B4, the “IC50 of fatty acid uptake inhibition” value came to 483000 pM.

Take B1: the “IC50 of fatty acid uptake inhibition” value was 50 pM.

On to B2, for which the “IC50 of fatty acid uptake inhibition” value is 150 pM.

For B3, the “IC50 of fatty acid uptake inhibition” value amounted to 800 pM.

Take B7: the “IC50 of fatty acid uptake inhibition” value was determined as 200 pM.

Consider B8, for which the “IC50 of fatty acid uptake inhibition” value came to 40 pM.

For the molecule B9, the “IC50 of fatty acid uptake inhibition” value is 300 pM.

For the molecule B10, the “IC50 of fatty acid uptake inhibition” value came to 180 pM.

For another assay the target is unchanged. Nature of the assay: FACS, SCC25 cells stably overexpressing human CD36.
Experimental: (§1) After transiently transfecting the HEK 293 cells with a CD36 expression construct, cells were treated with three-fold serial dilution of each candidate antibody (10 dilutions starting at 500 nM). […] After incubation with the cells, an anti-human fluorescently labelled antibody was added to the cell media, allowed to incubate further, and the unbound antibody was washed off of the cells. Subsequently, the cells were subjected to FACS analysis to determine antibody binding to the cells. The results were fitted to a sigmoidal titration curve. Using a nonlinear regression model, the EC₅₀ values for each antibody were calculated from the GeoMFI and MFI values using the log(agonist) versus response (four parameters) fitting on the data transformed according to X=Log[X] in GraphPad PRISM.
B1 came in with a half-maximal effective concentration (EC50) of 750 pM.

Take B2: the EC50 was 570 pM.

Regarding B3, the EC50 came out at 220 pM.

In the next assay the target is T3, mouse CD36 (on HEK 293 cells) (mouse, UniProt Q08857 1-472).
T3 construct: also called Murine CD36
T3 sequence (Q08857 whole entry): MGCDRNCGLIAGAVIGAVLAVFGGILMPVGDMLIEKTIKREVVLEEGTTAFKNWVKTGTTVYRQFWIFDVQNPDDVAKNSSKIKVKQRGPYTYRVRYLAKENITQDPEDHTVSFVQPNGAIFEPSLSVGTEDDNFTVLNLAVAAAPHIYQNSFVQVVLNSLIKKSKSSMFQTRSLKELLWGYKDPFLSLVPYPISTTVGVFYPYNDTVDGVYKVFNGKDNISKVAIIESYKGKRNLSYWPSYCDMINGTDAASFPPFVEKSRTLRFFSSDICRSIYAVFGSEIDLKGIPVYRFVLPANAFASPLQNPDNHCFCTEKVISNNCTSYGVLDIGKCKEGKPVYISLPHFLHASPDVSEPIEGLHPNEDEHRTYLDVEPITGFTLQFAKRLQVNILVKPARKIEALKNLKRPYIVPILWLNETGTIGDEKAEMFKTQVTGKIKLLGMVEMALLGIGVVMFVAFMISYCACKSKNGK
Nature of the assay: FACS, HEK 293 cells transiently overexpressing CD36.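 Further: antibody binding to transfected cells detected by flow cytometry with a fluorescent anti-human secondary antibody, EC50 from a four-parameter sigmoidal fit of mean fluorescence intensity.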 Background: In flow cytometry, cells or beads pass a laser one at a time.
Experimental: as §1
In turn, B6 showed a half-maximal effective concentration (EC50) of 660 pM.

In turn, B1 yielded an EC50 of 22500 pM.

The molecule B2 came in with an EC50 of 18200 pM.

In turn, B3 returned an EC50 of 960 pM.

On to B7, for which the EC50 came out at 6750 pM.

In turn, B8 returned an EC50 of 2250 pM.

In the case of B9, the EC50 came out at 2290 pM.

B10 had an EC50 of 690 pM.

Another assay addresses T1, human CD36 (on HEK 293 or SCC25 cells). The description is as above.
Experimental: as §1
Molecule B6 returned an EC50 of 330 pM.

Molecule B1 returned an EC50 of 1920 pM.

The molecule B2 came in with an EC50 of 1360 pM.

B3 displayed an EC50 of 320 pM.

Molecule B7 came in with an EC50 of 560 pM.

B8 came in with a concentration for a half-maximal effect (EC50) of 630 pM.

As for B9, a half-maximal response (EC50) required 620 pM.

B10 showed an EC50 of 350 pM.

For B5, the EC50 was 910 pM.

A further assay concerns the target T4, nonhuman primate CD36 (on HEK 293 cells) (cynomolgus monkey / rhesus macaque, UniProt P16671 2-472 (human entry)).
T4 construct: also called non-human primate CD36 (cynomolgus)
Described as above.
Experimental: as §1
For B6, a half-maximal effect (EC50) was put at 290 pM.

The molecule B4 gave an EC50 of 27700 pM.

Consider B1, for which the EC50 was 5450 pM.

As to B2, it took 5400 pM to reach a half-maximal effect (EC50).

B3 had an EC50 of 1630 pM.

Regarding B7, a half-maximal response (EC50) required 1400 pM.

With B8, the EC50 is 590 pM.

For the molecule B9, a half-maximal effect (EC50) was put at 1450 pM.

In turn, B10 registered an EC50 of 330 pM.

B5 returned an EC50 of 630 pM.

The target in the next assay is T2, purified biotin-tagged human CD36. The experiment in a line: AlphaScreen competition; competitor 1G04 on acceptor beads.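 Further: streptavidin donor beads excited at 680 nm release singlet oxygen, and the light signal needs a nearby acceptor bead, with 30 min donor-bead incubation at 25 °C in the dark.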
Experimental: (§2) This was done using the AlphaScreen® bead-based microplate assay. […] AlphaLISA® Streptavidin Donor Beads were then added and the mix incubated for 30 min at 25° C. in the dark. The donor bead contains a photosensitizer, which upon excitation by light at 680 nm, converts oxygen (O₂) into an excited form, singlet oxygen. Singlet oxygen molecules have a reduced lifetime (4 microseconds half-life) and can diffuse approximately 200 nm in solution before falling back to ground state. In the absence of acceptor beads, the singlet oxygen molecules fall back to ground state without producing any light signal.
B6 came in with an EC50 of 570 pM.

In turn, B4 returned an EC50 of 110 pM.

For the molecule B2, a half-maximal response (EC50) required 9190 pM.

Molecule B7 yielded an EC50 of 2470 pM.

As for B8, the EC50 worked out at 660 pM.

In turn, B9 gave an EC50 of 9910 pM.

In the case of B10, the EC50 amounted to 1450 pM.

B5 gave an EC50 of 150 pM.

The next assay concerns the target T1, human CD36 (on HEK 293 or SCC25 cells). Nature of the assay: cell-based or functional assay. The source holds these as a separate data set.
B6: the “IC50 of oxLDL uptake inhibition (DiI-oxLDL, SCC25 cells)” value (“IC50 of oxLDL uptake inhibition” below) was determined as 90 pM.

For the molecule B7, the “IC50 of oxLDL uptake inhibition” value was found to be 1060 pM.

Consider B8, for which the “IC50 of oxLDL uptake inhibition” value was determined as 110 pM.

B9: the “IC50 of oxLDL uptake inhibition” value amounted to 1140 pM.

Regarding B10, the “IC50 of oxLDL uptake inhibition” value is 350 pM.

Another assay concerns the target T2, purified biotin-tagged human CD36. Nature of the assay: AlphaScreen competition; competitor 11G04 on acceptor beads.
Experimental: as §2
In turn, B6 came in with an EC50 of 1040 pM.

Consider B1, for which the EC50 was found to be 5230 pM.

The molecule B2 came in with an EC50 of 3730 pM.

Take B3: a half-maximal effect (EC50) was put at 650 pM.

Molecule B7 returned an EC50 of 4820 pM.

Consider B8, for which the EC50 was 1350 pM.

B9 registered a concentration giving a half-maximal response (EC50) of 3300 pM.

The molecule B10 yielded an EC50 of 1050 pM.
